The values that follow are results of earlier work, collected in US20050096266A1, “Preparation and method for weight reduction” (priority 2002, published 2005).

This data set deals with trypsin. The settings on record: trypsin secreted into the duodenum by the pancreas; per one weight unit of inhibitor.

B1: soybean trypsin inhibitor: Commercial proteinous trypsin inhibitor (Type Il-S, Sigma Chemical Co.) that binds trypsin, forming inactive complexes (protein, UniProt P01070 25-205, looked up)
Trypsin inhibitor A: DFVLDNEGNPLENGGTYYILSDITAFGGIRAAPTGNERCPLTVVQSRNELDKGIGTIISSPYRIRFIAEGHPLSLKFDSFAVIMLCVGIPTEWSVVEDLPEGPAVKIGENKDAMDGWFRLERVSDDEFNNYKLVFCPQQAEDDKCGDIGISIDHDDGTRRLVVSKNKPLVVQFQKLDKESL
Turning to B1, the “weight units of trypsin inactivated by one weight unit of the inhibitor” value is listed as 2.5 weight units.
